Data reported in patent US20240272170A1 (QUANTUM SI, published 2024).
Numbering of substitutions follows the chain as printed. Names may count otherwise. Values belong to the binder of their own block, whether it stands above or below them. No end group written: not given here. *: point of attachment. FITC = O=C1OC2(c3ccc(O)cc3Oc3cc(O)ccc32)c2ccc(NC(=S)*)cc21

Columns and labels:
[1] = molecular target: T1, RA peptide (XAKLDEESILKQK-FITC, X = R); assay: fluorescence polarization titration, 20 C
T1 construct: also called peptide with N-terminal arginine
T1 peptide: RAKLDEESILKQK(FITC)
Procedure: (§1) Binding affinity was measured by polarization using a labeled peptide. The polarization response and total intensity measurements were carried out at 20° C. on a microplate fluorometer with 480 nm excitation and 530 nm emission. […] Multiple analyses were performed at increasing recognizer concentration at a fixed concentration of a target peptide to obtain a titration curve. An equilibrium polarization response at each concentration was plotted and fit to calculate the KD.
(§2) Fluorescence polarization assays were performed with all candidates, and single point binding responses were measured at a fixed concentration of the binders (FIG. 13A). […] We carried out multiple polarization binding titration analysis at increasing concentration of binder protein, and the Kds were determined from the titration curves (FIG. 13B).

[2] = molecular target: T2, HA peptide (XAKLDEESILKQK-FITC, X = H); assay: fluorescence polarization titration, 20 C
T2 construct: also called peptide with N-terminal histidine
T2 peptide: HAKLDEESILKQK(FITC)
Procedure: as §1, §2

[3] = molecular target: T3, HA peptide (Octet assay of PS621 variants); assay: Octet (BLI), 30 C
T3 construct: XAKLDEESILKQK with X = H
T3 peptide: HAKLDEESILKQK

[4] = molecular target: T4, KA peptide (Octet assay of PS621 variants); assay: Octet (BLI), 30 C
T4 construct: XAKLDEESILKQK with X = K
T4 peptide: KAKLDEESILKQK

[5] = molecular target: T5, RF peptide (Octet assay of PS621 variants); assay: Octet (BLI), 30 C
T5 construct: RX… with X = F
Source text: (§3) Peptides of the sequence RXKLDEESILKQK (SEQ ID NO: 1076) were also used to evaluate the penultimate residue effect.

[6] = molecular target: T6, RL peptide (Octet assay of PS621 variants); assay: Octet (BLI), 30 C
T6 construct: RXKLDEESILKQK with X = L
T6 peptide: RLKLDEESILKQK
Source text: as §3

[7] = molecular target: T7, RS peptide (Octet assay of PS621 variants); assay: Octet (BLI), 30 C
T7 construct: RXKLDEESILKQK with X = S
T7 peptide: RSKLDEESILKQK
Source text: as §3

[8] = molecular target: T8, RE peptide (Octet assay of PS621 variants); assay: Octet (BLI), 30 C
T8 construct: RXKLDEESILKQK with X = E
T8 peptide: REKLDEESILKQK
Source text: as §3

[9] = molecular target: T9, RR peptide (Octet assay of PS621 variants); assay: Octet (BLI), 30 C
T9 construct: RX… with X = R
Source text: as §3

[10] = molecular target: T10, RQ peptide (Octet assay of PS621 variants); assay: Octet (BLI), 30 C
T10 construct: RX… with X = Q
Source text: as §3

[11] = molecular target: T11, RA peptide (Octet assay of PS621 variants); assay: Octet (BLI), 30 C
T11 construct: X… with X = R
Source text: as §3

LA peptide = molecular target: T12, LA peptide; assay: BLI (Octet), peptide on sensor, purified protein in solution
T12 construct: The peptide was coated on the Octet sensor; also called peptide with N-terminal leucine and penultimate alanine
Source text: (§4) In the high-throughput assay, Octet sensors are coated with the peptide of interest and dipped in buffer containing the purified protein. An approximation of relative binding can be obtained by comparing the response after 200 seconds for each protein. Each protein has approximately the same molecular mass and is used at the same concentration, so ranking the proteins by response level in this assay gives an approximation of which proteins have improved binding. Studying the on and off-rate can also give insight into the mechanism of binding.

AA peptide = molecular target: T13, AA peptide; assay: as above
T13 construct: The peptide was coated on the Octet sensor; also called peptide with N-terminal alanine and penultimate alanine
Source text: as §4

VA peptide = molecular target: T14, VA peptide; assay: as above
T14 construct: The peptide was coated on the Octet sensor; also called peptide with N-terminal valine and penultimate alanine
Source text: as §4

[12] = molecular target: T15, MA peptide (Octet assay of PS557 variants); assay: Octet (BLI), peptide on sensor, response after 200 s association
T15 construct: Peptide coated on the Octet sensor
Source text: (§5) In the high-throughput assay, Octet sensors are coated with the peptide of interest and dipped in buffer containing the purified protein. […] Studying the on and off-rate can also give insight into the mechanism of binding.

[13] = molecular target: T16, IA peptide (Octet assay of PS557 variants); assay: as above
T16 construct: Peptide coated on the Octet sensor
Source text: as §5

[14] = molecular target: T17, AA peptide (Octet assay of PS557 variants); assay: as above
T17 construct: Peptide coated on the Octet sensor
Source text: as §5

[15] = molecular target: T18, VA peptide (Octet assay of PS557 variants); assay: as above
T18 construct: Peptide coated on the Octet sensor
Source text: as §5

[16] = molecular target: T19, FA peptide (Octet assay of PS557 variants); assay: as above
T19 construct: Peptide coated on the Octet sensor
Source text: as §5

[17] = molecular target: T20, LA peptide (Octet assay of PS557 variants); assay: as above
T20 construct: Peptide coated on the Octet sensor
Source text: as §5

[18] = molecular target: T21, AA Peptide (fluorescence polarization), AAKLDEESILKQ{LYS(FITC)}; assay: fluorescence polarization, FITC peptide titrated with protein
T21 peptide: AAKLDEESILKQK(FITC)

[19] = molecular target: VA Peptide (fluorescence polarization) (FITC on the C-terminal lysine); assay: as above
[20] = molecular target: T22, MA Peptide (fluorescence polarization); assay: as above
T22 peptide: MAKLDEESILKQK(FITC)

Kd [1]: 260 nM
Kd [2]: 2850 nM
B1: PS1104 (designed binder)
chain: MHSKFSHAGRICGAKFKVGEPIYRCKECSFDDTCVLCVNCFNPKDHRGHHVYTTICTEFNNGICDCGDKEAWNHTLFCKAEEG
notes: PS621 variant

Kd [1]: 165 nM
Kd [2]: 3440 nM
B3: PS1106 (designed binder)
chain: B1 chain with R47T, T53V
notes: PS621 variant

Kd [1]: 289 nM
Kd [2]: 11400 nM
Octet response [3]: 0.7
Octet response [4]: 3.3
Octet response [6]: 9.6
Octet response [11]: 8.6
B4: PS1119 (designed binder)
chain: B1 chain with R47T, T57K
notes: Variant of PS621

Kd [1]: 298 nM
Kd [2]: 3830 nM
Octet response [3]: 0.6
Octet response [4]: 3.9
Octet response [6]: 8.1
Octet response [11]: 7.8
B5: PS1107 (designed binder)
chain: B1 chain with R47T, T57R
notes: Variant of PS621

Kd [1]: 787 nM
Octet response [4]: 2.9
Octet response [6]: 8.4
Octet response [11]: 6.2
B6: PS1103 (designed binder)
chain: B1 chain with D32Y, R47T
notes: Variant of PS621

Octet response [3]: 3.4
Octet response [4]: 7.3
Octet response [5]: 10.5
Octet response [6]: 11.3
Octet response [7]: 8.9
Octet response [8]: 7.6
Octet response [9]: 8
Octet response [10]: 9.7
Octet response [11]: 9.4
B7: PS1104 (designed binder)
chain: B1 chain
notes: Variant of PS621

Kd [1]: 271 nM
Kd [2]: 6180 nM
Octet response [3]: 1.8
Octet response [4]: 5
Octet response [6]: 10.6
Octet response [11]: 9.8
B8: PS1118 (designed binder)
chain: B1 chain with R47T, E58K
notes: Variant of PS621

Kd [1]: 259 nM
Kd [2]: 3500 nM
B10: PS1121 (designed binder)
chain: B1 chain with R47K
notes: PS621 variant

Octet response [3]: 0.2
Octet response [4]: 2.6
Octet response [5]: 7.2
Octet response [6]: 7.5
Octet response [7]: 5.5
Octet response [8]: 2.9
Octet response [9]: 4.4
Octet response [10]: 5.9
Octet response [11]: 6.5
B11: PS1105 (designed binder)
chain: B1 chain with R47T, G48R
notes: Variant of PS621

Kd [1]: 152 nM
Kd [2]: 1920 nM
B12: PS1115 (designed binder)
chain: B1 chain with F59R, T75E
notes: PS621 variant

Octet response [3]: 1.7
Octet response [4]: 5.5
Octet response [5]: 10.2
Octet response [6]: 11.7
Octet response [7]: 8.3
Octet response [8]: 8.8
Octet response [9]: 5.9
Octet response [10]: 9.5
Octet response [11]: 9.9
B13: PS1120 (designed binder)
chain: B1 chain with R47T, T54K
notes: Variant of PS621

Kd [1]: 180 nM
Kd [2]: 2660 nM
B14: PS1114 (designed binder)
chain: B1 chain with F59R
notes: PS621 variant

The remaining lines, values behind:

B2: PS1102 (designed binder)
chain: B1 chain with S29Q, R47T
notes: Variant of PS621
Kd [1]: 638 nM
Octet response [3]: 2.5
Octet response [4]: 6.6
Octet response [5]: 9.3
Octet response [6]: 10.4
Octet response [7]: 8.5
Octet response [8]: 6.6
Octet response [9]: 7
Octet response [10]: 9.3
Octet response [11]: 8.6

B9: PS1101 (designed binder)
chain: B1 chain with G19R, R47T
notes: Variant of PS621
Kd [1]: 1550 nM
Octet response [4]: 1.4
Octet response [5]: 6
Octet response [6]: 7.7
Octet response [7]: 4.3
Octet response [8]: 1.9
Octet response [9]: 2.8
Octet response [10]: 4.7
Octet response [11]: 6.5

B15: PS830 (designed binder)
chain: MPTAASATESAIEDTPAPARPEVDGRTKPKRQPRYHVVLWDDDDHTYQYVVVMLQSLFGHPRKRGYRLAKEMDTLGRVIVLTTTREHAELKRDQIHAFGYDRLLARSKGSMKASIEAEE
notes: Variant of PS557
Octet response after 200 sec association (LA peptide): 8.54 nm
Octet response after 200 sec association (AA peptide): 0.215 nm
Octet response after 200 sec association (VA peptide): 6.64 nm

B16: PS960 (designed binder)
chain: B15 chain with Q55R, H60I, R62P, K63E, L75Q
notes: Variant of PS557
Octet response [12]: 6.86 nm
Octet response [13]: 9.98 nm
Octet response [14]: 1.68 nm
Octet response [15]: 9.29 nm
Octet response [16]: 0.0851 nm
Octet response [17]: 10.5 nm

B17: PS816 (designed binder)
chain: B15 chain with R62P, K63E, L75Q
notes: Variant of PS557; also called N41D, V72M
Kd [18]: 7590 nM
Kd [19]: 266 nM
Kd [20]: 805 nM

B18: PS847 (designed binder)
chain: B15 chain with Q55R, R62P, K63E, L75Q
notes: Variant of PS557
Octet response after 200 sec association (LA peptide): 9.92 nm
Octet response after 200 sec association (AA peptide): 0.288 nm
Octet response after 200 sec association (VA peptide): 6.68 nm

B19: PS962 (designed binder)
chain: B15 chain with Q55R, R62Y, K63A, L75Q, Y100R
notes: Variant of PS557
Octet response [12]: 8.37 nm
Octet response [13]: 10.7 nm
Octet response [14]: 3.76 nm
Octet response [15]: 10.7 nm
Octet response [16]: 2.57 nm
Octet response [17]: 10.5 nm

B20: PS968 (designed binder)
chain: B15 chain with D41N, Q55R, R62P, K63E, L75Q, Y100R
notes: Variant of PS557; also called V72M, Q55R, Y100R
Kd [18]: 5440 nM
Kd [20]: 395 nM

B21: PS934 (designed binder)
chain: B15 chain with K63E, L68M, L75Q
notes: Variant of PS557; also called N41D, V72M, L68M, P62R
Kd [18]: 5330 nM
Kd [20]: 325 nM

B22: PS769 (designed binder)
chain: B15 chain with R62P, K63E, M72V, L75Q
notes: Variant of PS557; also called N41D
Kd [18]: 8700 nM
Kd [19]: 276 nM
